Biological target: His-tagged recombinant AjBNIP3 (rAjBNIP3) (Apostichopus japonicus)
Test: MST

Question: Recombinant His-AjLC3 (natural protein) was tested. Which Kd did it give?
Answer: The Kd was 2820 nM.
